# Measured values reported in patent US20260242735A1.
# Tests used:
# Experiment in all cases: alanine scan, flow cytometry, HEK293-T
# human CD33 N76A (human) = human CD33 N76A (human) (UniProt P20138)
# human CD33 L153A (human) = human CD33 L153A (human) (UniProt P20138)
# human CD33 V165A (human) = human CD33 V165A (human) (UniProt P20138)
# human CD33 Y127A (human) = human CD33 Y127A (human) (UniProt P20138)
# human CD33 P145A (human) = human CD33 P145A (human) (UniProt P20138)
# human CD33 S54A (human) = human CD33 S54A (human) (UniProt P20138)
# human CD33 L180A (human) = human CD33 L180A (human) (UniProt P20138)
# human CD33 S68A (human) = human CD33 S68A (human) (UniProt P20138)
# human CD33 D79A (human) = human CD33 D79A (human) (UniProt P20138)
# human CD33 E121A (human) = human CD33 E121A (human) (UniProt P20138)
# human CD33 T142A (human) = human CD33 T142A (human) (UniProt P20138)
# human CD33 N113A (human) = human CD33 N113A (human) (UniProt P20138)
# human CD33 T125A (human) = human CD33 T125A (human) (UniProt P20138)
# human CD33 N99A (human) = human CD33 N99A (human) (UniProt P20138)
# human CD33 T162A (human) = human CD33 T162A (human) (UniProt P20138)
# human CD33 W179A (human) = human CD33 W179A (human) (UniProt P20138)
# human CD33 Y50A (human) = human CD33 Y50A (human) (UniProt P20138)
# human CD33 V73A (human) = human CD33 V73A (human) (UniProt P20138)
# human CD33 H157A (human) = human CD33 H157A (human) (UniProt P20138)
# human CD33 P96A (human) = human CD33 P96A (human) (UniProt P20138)
# human CD33 N160A (human) = human CD33 N160A (human) (UniProt P20138)
# human CD33 C101A (human) = human CD33 C101A (human) (UniProt P20138)
# human CD33 F90A (human) = human CD33 F90A (human) (UniProt P20138)
# human CD33 S158A (human) = human CD33 S158A (human) (UniProt P20138)
# human CD33 Y116A (human) = human CD33 Y116A (human) (UniProt P20138)
# human CD33 T86A (human) = human CD33 T86A (human) (UniProt P20138)
# human CD33 I47A (human) = human CD33 I47A (human) (UniProt P20138)
# human CD33 G114A (human) = human CD33 G114A (human) (UniProt P20138)
# human CD33 H193A (human) = human CD33 H193A (human) (UniProt P20138)
# human CD33 T192A (human) = human CD33 T192A (human) (UniProt P20138)
# human CD33 S97A (human) = human CD33 S97A (human) (UniProt P20138)
# human CD33 G172A (human) = human CD33 G172A (human) (UniProt P20138)
# human CD33 A65S (human) = human CD33 A65S (human) (UniProt P20138)
# human CD33 L187A (human) = human CD33 L187A (human) (UniProt P20138)
# human CD33 L93A (human) = human CD33 L93A (human) (UniProt P20138)
# human CD33 N100A (human) = human CD33 N100A (human) (UniProt P20138)
# human CD33 E84A (human) = human CD33 E84A (human) (UniProt P20138)
# human CD33 F117A (human) = human CD33 F117A (human) (UniProt P20138)
# human CD33 I105A (human) = human CD33 I105A (human) (UniProt P20138)
# human CD33 G88A (human) = human CD33 G88A (human) (UniProt P20138)
# human CD33 R122A (human) = human CD33 R122A (human) (UniProt P20138)
# human CD33 L161A (human) = human CD33 L161A (human) (UniProt P20138)
# human CD33 R91A (human) = human CD33 R91A (human) (UniProt P20138)
# human CD33 Q83A (human) = human CD33 Q83A (human) (UniProt P20138)
# human CD33 R109A (human) = human CD33 R109A (human) (UniProt P20138)
# human CD33 R109A (human), sequence (P20138 18-364 R109A limits assumed): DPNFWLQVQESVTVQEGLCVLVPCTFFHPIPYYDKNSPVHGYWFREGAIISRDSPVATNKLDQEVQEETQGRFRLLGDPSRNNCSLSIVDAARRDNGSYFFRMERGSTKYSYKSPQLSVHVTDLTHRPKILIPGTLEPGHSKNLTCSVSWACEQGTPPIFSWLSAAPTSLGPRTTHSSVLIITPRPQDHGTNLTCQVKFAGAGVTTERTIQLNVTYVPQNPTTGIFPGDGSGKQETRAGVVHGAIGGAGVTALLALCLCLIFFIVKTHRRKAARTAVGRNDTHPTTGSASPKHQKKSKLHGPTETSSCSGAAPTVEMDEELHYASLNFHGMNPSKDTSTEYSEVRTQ
# human CD33 F117A (human), sequence (P20138 18-364 F117A limits assumed): as the sequence (P20138 18-364 R109A limits assumed) above, with A92R, F100A counted along it
# human CD33 Y127A (human), sequence (P20138 18-364 Y127A limits assumed): as the sequence (P20138 18-364 R109A limits assumed) above, with A92R, Y110A counted along it
# human CD33 V165A (human), sequence (P20138 18-364 V165A limits assumed): as the sequence (P20138 18-364 R109A limits assumed) above, with A92R, V148A counted along it
# human CD33 N160A (human), sequence (P20138 18-364 N160A limits assumed): as the sequence (P20138 18-364 R109A limits assumed) above, with A92R, N143A counted along it
# human CD33 H193A (human), sequence (P20138 18-364 H193A limits assumed): as the sequence (P20138 18-364 R109A limits assumed) above, with A92R, H176A counted along it
# human CD33 D79A (human), sequence (P20138 18-364 D79A limits assumed): as the sequence (P20138 18-364 R109A limits assumed) above, with D62A, A92R counted along it
# human CD33 I105A (human), sequence (P20138 18-364 I105A limits assumed): as the sequence (P20138 18-364 R109A limits assumed) above, with I88A, A92R counted along it
# human CD33 T86A (human), sequence (P20138 18-364 T86A limits assumed): as the sequence (P20138 18-364 R109A limits assumed) above, with T69A, A92R counted along it
# human CD33 L180A (human), sequence (P20138 18-364 L180A limits assumed): as the sequence (P20138 18-364 R109A limits assumed) above, with A92R, L163A counted along it
# human CD33 I47A (human), sequence (P20138 18-364 I47A limits assumed): as the sequence (P20138 18-364 R109A limits assumed) above, with I30A, A92R counted along it
# human CD33 G172A (human), sequence (P20138 18-364 G172A limits assumed): as the sequence (P20138 18-364 R109A limits assumed) above, with A92R, G155A counted along it
# human CD33 P96A (human), sequence (P20138 18-364 P96A limits assumed): as the sequence (P20138 18-364 R109A limits assumed) above, with P79A, A92R counted along it
# human CD33 Q83A (human), sequence (P20138 18-364 Q83A limits assumed): as the sequence (P20138 18-364 R109A limits assumed) above, with Q66A, A92R counted along it
substance,measurement,setting,value
Refmab #7 (WM53) (antibody),Mean % WT Binding,human CD33 N76A (human),93.9 % WT binding
same,Mean % WT Binding,human CD33 L153A (human),101 % WT binding
same,Mean % WT Binding,human CD33 V165A (human),118 % WT binding
same,Mean % WT Binding,human CD33 Y127A (human),175 % WT binding
same,Mean % WT Binding,human CD33 P145A (human),102 % WT binding
same,Mean % WT Binding,human CD33 S54A (human),100 % WT binding
same,Mean % WT Binding,human CD33 L180A (human),105 % WT binding
same,Mean % WT Binding,human CD33 S68A (human),120 % WT binding
same,Mean % WT Binding,human CD33 D79A (human),83.5 % WT binding
same,Mean % WT Binding,human CD33 E121A (human),94.4 % WT binding
same,Mean % WT Binding,human CD33 T142A (human),113 % WT binding
same,Mean % WT Binding,human CD33 N113A (human),80 % WT binding
same,Mean % WT Binding,human CD33 T125A (human),91.3 % WT binding
same,Mean % WT Binding,human CD33 N99A (human),102 % WT binding
same,Mean % WT Binding,human CD33 T162A (human),103 % WT binding
same,Mean % WT Binding,human CD33 W179A (human),111 % WT binding
same,Mean % WT Binding,human CD33 Y50A (human),1 % WT binding
same,Mean % WT Binding,human CD33 V73A (human),113 % WT binding
same,Mean % WT Binding,human CD33 H157A (human),116 % WT binding
same,Mean % WT Binding,human CD33 P96A (human),98.7 % WT binding
same,Mean % WT Binding,human CD33 N160A (human),112 % WT binding
same,Mean % WT Binding,human CD33 C101A (human),1.8 % WT binding
same,Mean % WT Binding,human CD33 F90A (human),83.3 % WT binding
same,Mean % WT Binding,human CD33 S158A (human),113 % WT binding
same,Mean % WT Binding,human CD33 Y116A (human),1.7 % WT binding
same,Mean % WT Binding,human CD33 T86A (human),111 % WT binding
same,Mean % WT Binding,human CD33 I47A (human),50.2 % WT binding
same,Mean % WT Binding,human CD33 G114A (human),94.6 % WT binding
same,Mean % WT Binding,human CD33 H193A (human),107 % WT binding
same,Mean % WT Binding,human CD33 T192A (human),102 % WT binding
same,Mean % WT Binding,human CD33 S97A (human),128 % WT binding
same,Mean % WT Binding,human CD33 G172A (human),92.1 % WT binding
same,Mean % WT Binding,human CD33 A65S (human),117 % WT binding
same,Mean % WT Binding,human CD33 L187A (human),124 % WT binding
same,Mean % WT Binding,human CD33 L93A (human),102 % WT binding
same,Mean % WT Binding,human CD33 N100A (human),128 % WT binding
same,Mean % WT Binding,human CD33 E84A (human),109 % WT binding
same,Mean % WT Binding,human CD33 F117A (human),132 % WT binding
same,Mean % WT Binding,human CD33 I105A (human),56.1 % WT binding
same,Mean % WT Binding,human CD33 G88A (human),115 % WT binding
same,Mean % WT Binding,human CD33 R122A (human),25.1 % WT binding
same,Mean % WT Binding,human CD33 L161A (human),120 % WT binding
same,Mean % WT Binding,human CD33 R91A (human),114 % WT binding
same,Mean % WT Binding,human CD33 Q83A (human),120 % WT binding
same,Mean % WT Binding,human CD33 R109A (human),127 % WT binding
